Laboratory results reported in publication PMC6591005 (Immunity, 2019).

Experiments:
Conditions in all cases: both partners purified
GII.4.2002 P domain = GII.4.2002 P domain (Human norovirus GII.4 2002 Farmington …, UniProt R4I4P2, strain); test: crystal structure
[1] = target: T1, GII.4 2015 Virus like particles (Human norovirus GII.P16-GII.4 Sydney …, strain); test: ELISA; EIA: plates coated with VLP at 0.25 μg/ml in PBS for 4 h, blocked in 5% dry milk in PBS-0.05% Tween-20; two-fold serial dilutions of mAb at 37°C; anti-human IgG-HRP; less than 0.2 OD at 2 μg/ml scored as negative
T1 construct: copies: 180
T1 chain: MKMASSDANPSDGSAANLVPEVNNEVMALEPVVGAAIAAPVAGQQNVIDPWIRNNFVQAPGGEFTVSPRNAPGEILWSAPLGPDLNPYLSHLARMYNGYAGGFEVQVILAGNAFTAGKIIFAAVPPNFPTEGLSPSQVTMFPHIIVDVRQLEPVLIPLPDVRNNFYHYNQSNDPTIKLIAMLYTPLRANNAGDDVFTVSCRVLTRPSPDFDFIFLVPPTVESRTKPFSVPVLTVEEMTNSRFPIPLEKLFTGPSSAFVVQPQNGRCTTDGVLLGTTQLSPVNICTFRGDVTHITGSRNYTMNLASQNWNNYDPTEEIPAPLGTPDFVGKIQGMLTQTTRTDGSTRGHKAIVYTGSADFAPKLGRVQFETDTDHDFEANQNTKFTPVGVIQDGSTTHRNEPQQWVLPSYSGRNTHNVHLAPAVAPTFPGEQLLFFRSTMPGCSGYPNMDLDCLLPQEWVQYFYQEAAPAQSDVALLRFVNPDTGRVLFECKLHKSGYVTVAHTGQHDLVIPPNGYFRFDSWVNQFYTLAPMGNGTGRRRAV

[2] = target: T2, GII.4 2006b Virus like particles (Human norovirus GII.4 2006b …, UniProt R4I3T2, strain); test: as above
T2 construct: copies: 180

[3] = target: T3, GII.4 2002 Virus like particles (Human norovirus GII.4 2002 Farmington …, UniProt R4I4P2, strain); test: as above
T3 construct: copies: 180

[4] = target: T4, GII.4 2012 Virus like particles (Human norovirus GII.4 Sydney 2012, …, UniProt K4LM89, strain); test: as above
T4 construct: copies: 180

[5] = target: GII.2 Virus like particles (Human norovirus GII.2 (Snow Mountain …, UniProt Q80RD6, strain)); test: as above
[6] = target: T5, GII.4 1997 Virus like particles (Human norovirus GII.4 1997 (US95_96), …, UniProt R4I4R2, strain); test: as above
T5 construct: copies: 180

[7] = target: GII.17 Virus like particles (Human norovirus GII.17, GenBank …, UniProt A0A0E3X5I8, strain); test: as above
[8] = target: soluble GII.4 P domain from the 2006 pandemic strain (Human norovirus GII.4 2006, taken as …, UniProt R4I3T2, strain); test: co-purification of the complex; Fab of A1227 purified in complex with soluble GII.4 P domains, screened for crystallization
[9] = target: soluble GII.4 P domain from the 2012 pandemic strain (Human norovirus GII.4 Sydney 2012, …, UniProt K4LM89, strain); test: as above
[10] = target: soluble GII.4 P domain from the 2009 pandemic strain (Human norovirus GII.4 2009 New Orleans, …, UniProt D3YBZ4, strain); test: as above

Measured: binding result

B1: A1431 Fab (Fab, V domains shown)
VH: QVQLVQSGGGLVQPGGSLRLSCAASGFAFSNHGMHWVRQAPGKGLEWLSYISGSTGAIHYANSVKGRFTISRDNARNSLDLQMNSLGDEDTAVYYCARDGPRPDGTGYAGPSNDYWGQGTLVSVSS
VL: EIVLTQSPASLSLSPGERATLSCKASRSISIYLAWYQQKPGQAPRLLIYDASYRAIGIPARFSGSGSGTDFTLTISNLEPEDFAVYYCQHRSSWPALTFGGGTKVEIK
binds: GII.4.2002 P domain

B2: A1227 (recombinant IgG1) (antibody, V domains shown)
VH: QVQLVQSGGGMVQPGGSLSLSCAASGFTLSNYAMTWVRQAPGKGLEWVSSIGGSGGTTYYADSVKGRFTISRDSSMNTLYLQMSNLRAGDTAVYYCAKDKTRTLRLGYSGMDVWGQGTTVTVSS
VL: DIRLTQSPSSLSASVGDRVTITCRASQSISSYLNWYQQKPGKAPDLLIYGASSLQSGVPSRFSGSGSGTDFTLTISSLQPEDFGNYYCQQSFSTPRTFGQGTKVELK
not listed: GII.4.2002 P domain | [8] | [9] | [10]
binds: all other assays above

B3: A1227 Fab (Fab, V domains shown)
VH: QVQLVQSGGGMVQPGGSLSLSCAASGFTLSNYAMTWVRQAPGKGLEWVSSIGGSGGTTYYADSVKGRFTISRDSSMNTLYLQMSNLRAGDTAVYYCAKDKTRTLRLGYSGMDVWGQGTTVTVSS
VL: DIRLTQSPSSLSASVGDRVTITCRASQSISSYLNWYQQKPGKAPDLLIYGASSLQSGVPSRFSGSGSGTDFTLTISSLQPEDFGNYYCQQSFSTPRTFGQGTKVELK
notes: also called Fab A1227
binds: [8] | [9] | [10]
